Measured values from patent US20150210766A1 (SAMSUNG ELECTRONICS, published 2015).

B1: AbF46, mouse monoclonal antibody to c-Met (hybridoma KCLRF-BP-00220) (antibody, V domains shown)
VH: EVKLVESGGGLVQPGGSLRLSCATSGFTFTDYYMSWVRQPPGKALEWLGFIRNKANGYTTEYSASVKGRFTISRDNSQSILYLQMDTLRAEDSATYYCARDNWFAYWGQGTLVTVSA
VL: DILMTQSPSSLTVSAGEKVTMSCKSSQSLLASGNQNNYLAWHQQKPGRSPKMLIIWASTRVSGVPDRFIGSGSGTDFTLTINSVQAEDLAVYYCQQSYSAPLTFGAGTKLELK
notes: Tested as hybridoma culture in the screening ELISA; the single clone selected produces AbF46; also called mouse antibody AbF46
B2: MH3-05, anti-c-Met/anti-Her3 bispecific antibody in which the modified anti-Her3 scFv is fused at the c-terminal of L3-1Y-IgG2 (bispecific antibody, part only; not given: nothing needed for Her3 binding, not shown: another chain or arm of the molecule; small tags and cut ends)
heavy: EVQLVESGGGLVQPGGSLRLSCAASGFTFTDYYMSWVRQAPGKGLEWLGFIRNKANGYTTEYSASVKGRFTISRDNSKNTLYLQMNSLRAEDTAVYYCARDNWFAYWGQGTLVTVSSASTKGPSVFPLAPCSRSTSESTAALGCLVKDYFPEPVTVSWNSGALTSGVHTFPAVLQSSGLYSLSSVVTVPSSNFGTQTYTCNVDHKPSNTKVDKTVERKCCVECPPCPAPPVAGPSVFLFPPKPKDTLMISRTPEVTCVVVDVSHEDPEVQFNWYVDGVEVHNAKTKPREEQFNSTFRVVSVLTVVHQDWLNGKEYKCKVSNKGLPAPIEKTISKTKGQPREPQVYTLPPSREEMTKNQVSLTCLVKGFYPSDIAVEWESNGQPENNYKTTPPMLDSDGSFFLYSKLTVDKSRWQQGNVFSCSVMHEALHNHYTQKSLSLSPGKGGGGSGGGGSQVQLQESGGGLVKPGGSLRLSCAASGFTFSSYSMNWVRQAPGKGLEWVSSISSSSSYIYYADSVKGRFTISRDNAKNSLYLQMNSLRAEDTAVYYCAREDLTPFDYWGQGTLVTVSS
VL: LPVLTQPPSVSVAPGQTARITCGGDNIGSKSVHWYQQKPGQAPVLVVYDDSDRPSGIPERISGSNSGNTATLTISRVEAGDEADFYCQVWDNSVDLLFGGGTKLTVL
light: DIQMTQSPSSLSASVGDRVTITCKSSQSLLASGNQNNYLAWYQQKPGKAPKMLIIWASTRVSGVPSRFSGSGSGTDFTLTISSLQPEDFATYYCQQSYSRPYTFGQGTKVEIKRTVAAPSVFIFPPSDEQLKSGTASVVCLLNNFYPREAKVQWKVDNALQSGNSQESVTEQDSKDSTYSLSSTLTLSKADYEKHKVYACEVTHQGLSSPVTKSFNRGEC
modifications: In the real molecule the scFv-VL chain is joined covalently to the C-terminus of the heavy chain's VH (SEQ 115) through the undisclosed linker. It is written as a separate chain only because that linker has no letters.

Tests used:
[1] = target: T1, human c-Met/Fc fusion protein (R&D Systems) (human, UniProt P08581 25-932); assay: ELISA, human c-Met/Fc fusion protein coated on the plate, hybridoma culture added
T1 construct: Bought reagent; also called human c-Met/Fc protein; not shown: Fc part of the bought fusion protein, not described
Experimental: Human c-Met/Fc fusion protein was seeded in an amount of […] (2 μg/mL)/well to microtiter plates and allowed to adhere to the surface of each well. The […] that remained unbound was removed by washing.
The hybridoma cell culture obtained in Reference Example 1.1.2 was added in an amount of […] to each well of the plates and incubated for 1 hour. The cells remaining unreacted were washed out with a sufficient amount of Tris-buffered saline and Tween 20 (TBST). Goat anti-mouse IgG-horseradish peroxidase (HRP) was added to the plates and incubated for 1 hour at room temperature. The plates were washed with a sufficient amount of TBST, followed by reacting the peroxidase with a substrate (OPD). Absorbance at 450 nm was measured on an ELISA reader.

[2] = target: Her3-Fc (R&D Systems) (UniProt P21860); assay: SPR, Biacore T100; bispecific antibody captured (about 90 to 120 RU) by human Fab binder on a CM5 chip, Her3-Fc injected at various concentrations
Sequence of Her3-Fc (R&D Systems) (P21860 20-643 limits assumed): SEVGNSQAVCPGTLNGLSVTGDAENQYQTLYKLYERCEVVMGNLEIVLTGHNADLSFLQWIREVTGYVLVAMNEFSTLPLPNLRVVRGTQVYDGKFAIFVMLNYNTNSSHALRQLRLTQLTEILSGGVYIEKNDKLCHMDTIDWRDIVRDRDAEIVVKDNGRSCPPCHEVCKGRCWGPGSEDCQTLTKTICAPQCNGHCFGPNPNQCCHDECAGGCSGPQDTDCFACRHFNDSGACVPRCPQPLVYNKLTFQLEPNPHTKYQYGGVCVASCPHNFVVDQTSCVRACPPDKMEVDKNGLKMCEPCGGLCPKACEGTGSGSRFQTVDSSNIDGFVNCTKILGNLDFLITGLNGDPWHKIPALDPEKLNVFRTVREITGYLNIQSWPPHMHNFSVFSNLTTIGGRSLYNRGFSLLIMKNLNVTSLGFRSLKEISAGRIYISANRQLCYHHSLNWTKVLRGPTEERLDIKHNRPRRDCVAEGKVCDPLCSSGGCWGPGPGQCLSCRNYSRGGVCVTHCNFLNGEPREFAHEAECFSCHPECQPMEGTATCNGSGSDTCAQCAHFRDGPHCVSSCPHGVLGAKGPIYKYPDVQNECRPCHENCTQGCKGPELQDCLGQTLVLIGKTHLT

T1 sequence (P08581 25-932 limits assumed): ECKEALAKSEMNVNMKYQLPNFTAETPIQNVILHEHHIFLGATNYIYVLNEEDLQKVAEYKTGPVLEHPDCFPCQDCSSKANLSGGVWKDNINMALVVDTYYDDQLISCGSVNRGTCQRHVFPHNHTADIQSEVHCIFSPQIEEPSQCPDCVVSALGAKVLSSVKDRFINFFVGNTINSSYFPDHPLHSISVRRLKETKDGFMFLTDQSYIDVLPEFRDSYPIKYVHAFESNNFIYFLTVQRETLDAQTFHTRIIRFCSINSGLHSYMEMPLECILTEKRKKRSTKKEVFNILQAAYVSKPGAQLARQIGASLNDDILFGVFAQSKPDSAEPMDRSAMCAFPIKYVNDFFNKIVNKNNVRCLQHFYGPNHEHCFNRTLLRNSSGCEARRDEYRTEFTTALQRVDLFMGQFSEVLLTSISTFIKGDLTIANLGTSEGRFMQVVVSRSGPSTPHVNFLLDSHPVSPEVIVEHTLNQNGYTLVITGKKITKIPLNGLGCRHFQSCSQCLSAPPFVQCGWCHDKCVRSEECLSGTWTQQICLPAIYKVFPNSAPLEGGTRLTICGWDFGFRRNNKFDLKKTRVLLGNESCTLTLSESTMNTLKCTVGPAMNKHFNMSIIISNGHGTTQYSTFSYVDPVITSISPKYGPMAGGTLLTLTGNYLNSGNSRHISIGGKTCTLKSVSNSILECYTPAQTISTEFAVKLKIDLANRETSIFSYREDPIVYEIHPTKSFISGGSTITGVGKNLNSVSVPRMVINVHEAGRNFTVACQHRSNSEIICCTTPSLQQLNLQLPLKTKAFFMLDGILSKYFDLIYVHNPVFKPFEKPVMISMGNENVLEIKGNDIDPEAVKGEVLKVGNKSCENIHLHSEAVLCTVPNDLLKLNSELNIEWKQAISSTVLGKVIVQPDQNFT

Row | Binder | binding result [1] | Kd [2]
1 | B1 | binds | –
2 | B2 | – | 0.55 nM
